Bounds are passed on as bounds.

In assay [1] the target is catalytic subunit of bovine heart PKA (bovine, UniProt P00517 2-351). In words: cell-based or functional assay.
Assay [2] concerns the target T1, PKN purified from rat testis cytosol (rat, UniProt Q63433 2-946, limits assumed). In words: cell-based or functional assay.
The target in assay [3] is T1, PKN purified from rat testis cytosol. In words: apparent Ki from kinase kinetics with δPKC peptide substrate; double-reciprocal plots and secondary plot of Km/Vmax.
The target in assay [4] is T2, LexA DNA binding domain fused to PKNN1 (amino acid sequence 1-540 of PKN), pBTM/PKNN1 (human, UniProt P0A7C2 1-202 (Escherichia coli entry)).
T2 construct: also called LexAbd-PKN; LexA-PKNN1
In words: yeast two-hybrid, lacZ expression in L40 cells.

For assay [5], the target named is T3, PKNN2 (N-terminal region of PKN, amino acid sequence 1-474), 35S-labeled, in vitro translated (human, UniProt Q16512 1-474, [35S]methionine label).
T3 construct: also called in vitro translated PKN-N; PKN prepared by in vitro translation
In words: GST pull-down of 35S-labeled in vitro translated PKNN2.

Assay [6] deals with RhoA^Val14CLVL^- fused to the VP16 activation domain (human, UniProt P06492 413-490; P61586 1-189). In words: yeast two-hybrid with truncated PKN.
Assay [7] deals with T4, Gal4 DNA-binding domain fused to PKNN1 (amino acid sequence 1-540 of PKN), pGBT9 (human, UniProt P04386 1-147 (Saccharomyces cerevisiae entry)).
T4 construct: range 1-147; also called Gal4bd-PKN
In words: yeast two-hybrid library screen, HIS3 and β-galactosidase.

T3 sequence (Q16512 1-474): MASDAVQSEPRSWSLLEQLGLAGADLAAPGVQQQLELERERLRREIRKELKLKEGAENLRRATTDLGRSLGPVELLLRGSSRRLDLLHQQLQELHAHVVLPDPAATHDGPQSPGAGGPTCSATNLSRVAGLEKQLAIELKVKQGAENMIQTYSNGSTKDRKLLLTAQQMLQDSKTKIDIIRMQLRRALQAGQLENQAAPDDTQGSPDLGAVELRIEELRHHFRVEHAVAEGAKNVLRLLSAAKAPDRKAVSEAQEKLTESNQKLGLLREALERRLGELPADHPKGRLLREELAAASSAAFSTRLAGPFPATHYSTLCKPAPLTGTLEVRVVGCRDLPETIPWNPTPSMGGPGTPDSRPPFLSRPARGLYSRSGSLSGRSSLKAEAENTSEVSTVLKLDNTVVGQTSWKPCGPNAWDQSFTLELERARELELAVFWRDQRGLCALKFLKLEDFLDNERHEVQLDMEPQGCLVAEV
T2 sequence (P0A7C2 other isoform, or with tags, fused parts or gaps limits assumed): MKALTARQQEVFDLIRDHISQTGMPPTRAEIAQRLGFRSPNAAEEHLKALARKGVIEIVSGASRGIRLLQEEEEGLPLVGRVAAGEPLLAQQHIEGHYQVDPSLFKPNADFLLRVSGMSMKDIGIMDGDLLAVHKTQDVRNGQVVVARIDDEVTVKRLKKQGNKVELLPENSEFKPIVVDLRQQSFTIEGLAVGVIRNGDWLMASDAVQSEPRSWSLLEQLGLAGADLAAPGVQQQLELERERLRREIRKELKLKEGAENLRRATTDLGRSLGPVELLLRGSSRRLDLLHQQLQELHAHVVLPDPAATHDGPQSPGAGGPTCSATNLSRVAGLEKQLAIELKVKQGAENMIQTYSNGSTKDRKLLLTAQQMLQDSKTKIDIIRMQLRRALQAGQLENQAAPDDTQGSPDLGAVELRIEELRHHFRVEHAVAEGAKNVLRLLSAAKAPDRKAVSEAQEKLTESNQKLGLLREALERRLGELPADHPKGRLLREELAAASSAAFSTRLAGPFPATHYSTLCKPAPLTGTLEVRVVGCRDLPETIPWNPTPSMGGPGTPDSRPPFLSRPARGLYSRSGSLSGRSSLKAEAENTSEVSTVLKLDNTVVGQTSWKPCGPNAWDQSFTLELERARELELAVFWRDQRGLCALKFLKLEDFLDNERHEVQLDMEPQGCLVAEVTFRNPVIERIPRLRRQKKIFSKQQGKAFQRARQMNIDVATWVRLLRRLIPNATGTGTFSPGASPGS

Take RERLRREIRKELKLK [PKN (39-53) peptide]: the “IC50 (inhibition of Kemptide phosphorylation by PKA)” value in assay [1] was ≥ 1000 µM. Besides, the “IC50 (inhibition of δPKC peptide phosphorylation by PKN)” value in assay [2] is ~80 µM. In addition, the Ki in assay [3] amounted to 41 µM.

B1: VP16 transcription activation domain fused to the head-rod domain of NFM, pVP/NFMhr (other)
chain: MSYTLDSLGNPSAYRRVTETRSSFSRVSGSPSSGFRSQSWSRGSPSTVSSSYKRSMLAPRLAYSSAMLSSAESSLDFSQSSSLLNGGSGPGGDYKLSRSNEKEQLQGLNDRFAGYIEKVHYLEQQNKEIEAEIQALRQKQASHAQLGDAYDQEIRELRATLEMVNHEKAQVQLDSDHLEEDIHRLKERFEEEARLRDDTEAAIRALRKDIEEASLVKVELDKKVQSLQDEVAFLRSNHEEEVADLLAQIQASHITVERKDYLKTDISTALKEIRSQLESHSDQNMHQAEEWFKCRYAKLTEAAEQNKEAIRSAKEEIAEYRRQLQSKSIELESVRGTKESLERQLSDIEERHNHDLSSYQDTIQQLENELRGTKWEMARHLREYQDLLNVKMALDIEIAAYRKLLEGEETR
notes: range 1-411
Take B1: the binding result in assay [4] is given as “binds”.

B2: GST-HuActSkl (604-719) (other, human, UniProt P35609 604-719, looked up)
chain: MDELRTKWDKVKQLVPIRDQSLQEELARQHANERLRRQFAAQANAIGPWIQNKMEEIARSSIQITGALEDQMNQLKQYEHNIINYKNNIDKLEGDHQLIQEALVFDNKHTNYTMEH
notes: not shown: glutathione S-transferase (GST) tag
Regarding B2, the binding result in assay [5] was “no binding”.

B3: truncated PKN, amino acid sequence 3-135, two-hybrid fusion (other)
chain: SDAVQSEPRSWSLLEQLGLAGADLAAPGVQQQLELERERLRREIRKELKLKEGAENLRRATTDLGRSLGPVELLLRGSSRRLDLLHQQLQELHAHVVLPDPAATHDGPQSPGAGGPTCSATNLSRVAGLEKQL
notes: also called PKN 3-135
Regarding B3, the binding result in assay [6] was “binds”.

B4: GST-HuActSkl (837-894) (other, human, UniProt P35609 837-894, looked up)
chain: ILASDKPYILAEELRRELPPDQAQYCIKRMPAYSGPGSVPGALDYAAFSSALYGESDL
notes: as for B2
Turning to B4, the binding result in assay [5] is “no binding”.

B5: VP16 transcription activation domain fused to the head-rod domain of human NFL (amino acid sequence 1-349), pVP/NFL#21 (other)
chain: MSSFSYEPYYSTSYKRRYVETPRVHISSVRSGYSTARSAYSSYSAPVSSSLSVRRSYSSSSGSLMPSLENLDLSQVAAISNDLKSIRTQEKAQLQDLNDRFASFIERVHELEQQNKVLEAELLVLRQKHSEPSRFRALYEQEIRDLRLAAEDATNEKQALQGEREGLEETLRNLQARYEEEVLSREDAEGRLMEARKGADEAALARAELEKRIDSLMDEISFLKKVHEEEIAELQAQIQYAQISVEMDVTKPDLSAALKDIRAQYEKLAAKNMQNAEEWFKSRFTVLTESAAKNTDAVRAAKDEVSESRRLLKAKTLEIEACRGMNEALEKQLQELEDKQNADISAMQD
notes: range 1-349
With B5, in assay [4], the binding result is given as “binds”.

B6: Gal4 activation domain fusion of library clone #21 (head-rod domain of human NFL, amino acid sequence 1-349), pGAD10-NFL#21 (other, UniProt P07196 1-349, looked up, not shown: large carriers)
chain: MSSFSYEPYYSTSYKRRYVETPRVHISSVRSGYSTARSAYSSYSAPVSSSLSVRRSYSSSSGSLMPSLENLDLSQVAAISNDLKSIRTQEKAQLQDLNDRFASFIERVHELEQQNKVLEAELLVLRQKHSEPSRFRALYEQEIRDLRLAAEDATNEKQALQGEREGLEETLRNLQARYEEEVLSREDAEGRLMEARKGADEAALARAELEKRIDSLMDEISFLKKVHEEEIAELQAQIQYAQISVEMDVTKPDLSAALKDIRAQYEKLAAKNMQNAEEWFKSRFTVLTESAAKNTDAVRAAKDEVSESRRLLKAKTLEIEACRGMNEALEKQLQELEDKQNADISAMQD
notes: range 1-349; also called clone#21 protein; plasmid #21
On to B6, for which the binding result in assay [7] is “binds”.
